Patent publication US20170010270A1 (Chugai, published 2017)

T1: GPC3 peptide, amino acid position 321-350 (SEQ ID NO: 17) (human)
T1 construct: synthetic 30-residue peptide of GPC3
T1 peptide: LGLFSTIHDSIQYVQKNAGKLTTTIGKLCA

T2: GPC3 peptide, amino acid position 551-580 (SEQ ID NO: 29) (human)
T2 construct: synthetic 30-residue peptide of GPC3
T2 peptide: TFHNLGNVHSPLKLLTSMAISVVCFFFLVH

T3: GPC3 peptide, amino acid position 481-510 (SEQ ID NO: 25) (human)
T3 construct: synthetic 30-residue peptide of GPC3
T3 peptide: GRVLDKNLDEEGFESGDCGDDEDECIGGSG

T4: GPC3 peptide, amino acid position 381-410 (SEQ ID NO: 20) (human)
T4 construct: synthetic 30-residue peptide of GPC3
T4 peptide: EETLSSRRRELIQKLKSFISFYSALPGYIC

T5: GPC3 peptide, amino acid position 101-130 (SEQ ID NO: 6) (human)
T5 construct: synthetic 30-residue peptide of GPC3
T5 peptide: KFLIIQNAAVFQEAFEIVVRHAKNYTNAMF

T6: GPC3 peptide, amino acid position 181-210 (SEQ ID NO: 10) (human)
T6 construct: synthetic 30-residue peptide of GPC3
T6 peptide: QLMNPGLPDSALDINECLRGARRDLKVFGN

T7: GPC3 peptide, amino acid position 161-190 (SEQ ID NO: 9) (human)
T7 construct: synthetic 30-residue peptide of GPC3
T7 peptide: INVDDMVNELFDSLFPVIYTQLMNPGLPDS

T8: GPC3 peptide, amino acid position 141-170 (SEQ ID NO: 8) (human)
T8 construct: synthetic 30-residue peptide of GPC3
T8 peptide: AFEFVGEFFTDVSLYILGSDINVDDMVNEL

T9: GPC3 peptide, amino acid position 541-570 (SEQ ID NO: 28) (human)
T9 construct: synthetic 30-residue peptide of GPC3
T9 peptide: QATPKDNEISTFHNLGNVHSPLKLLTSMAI

B1: GT607 antibody (antibody, IgG1, V domains shown)
VH: EVQLVESGGDVVRPGGSLKLSCAASGFTFSSYGMSWVRQLPDKRLEWVASVGNGGSYRYYPENLKGRFTISRDNTKNTLYLQISGLKSEDTAIYYCARRGAFPYFDVWGAGTTVTVSS
VL: QIVLTQSPAIMSASPGEKVTLACSASSSVTYMHWYQQKSGTSPKRWIYETSKLASGVPPRFSGSGSGTSYSLTISTMEAEDAATYYCQQWSSNPLTFGAGTKLELKR
B2: GT165 antibody (antibody, IgG1, V domains shown)
VH: QVQLQQSGAELVGPGASVKISCKAFGYTFTNHHINWVKQRPGQGLDWIGYINPYNDYTNYNQKFKGKATLTVDKSSSTAYMELSSLTSEDSAVYYCARSDPAWFAYWGQGTLVTVSA
VL: DIQMTQSPSSLSASLGGKVTITCKASQDINKNIAWYQHKPGKGPRLLIWYTYTLQPGIPSRFSGSGSGRDYSFSISNLEPEDIATYYCLQYDNLPFTFGTGTKLEIKR
B3: GT114 antibody (antibody, IgG1, V domains shown)
VH: DVQLQESGPGLVKPSQSLSLTCTVTGYSITSDSAWNWIRQFPGNKLEWMAYIMYSGITSYNPSLKSRISITRDTAKNQFFLQLNSVTTEDSATYYCSRGYWYFDVWGAGTTVTVSS
VL: QIVLTQSPAIMSASLGEEITLTCSASSSVSYMHWYQQKSGTSPKLLIYSTSILASGVPSRFSGSGSGTFYSLTISSVEAEDAADYYCLQWITYRTFGGGTKLEIKR

Tests used:
[1] = target: T1, GPC3 peptide, amino acid position …; assay: ELISA on immobilised peptide
Protocol: (§1) In order to identify more detailed epitopes for the antibodies, the amino acid sequence of GPC3 was divided into peptides of 30 residues containing 10-residue overlaps, and the corresponding peptides were synthesized (SEQ ID NOs: 1 to 29 in Table 2). Each peptide thus synthesized was dissolved at a concentration of 1 mg/mL in dimethyl sulfoxide and then diluted to 1 μg/mL with PBS. The diluted peptide solution was added at 70 μL/well to a 96-well plate and immobilized thereon at room temperature for 1 hour. After removal of unimmobilized peptides, 20% Blocking-one (Nacalai Tesque, Inc.) was added thereto as a blocking buffer solution at 200 μL/well, and the plate was blocked overnight. After removal of the blocking buffer solution, each well was washed with TBS-T three times, and each antibody diluted to 2 μg/mL with a blocking buffer was then added thereto at 70 μL/well. One hour later, the antibody was removed, and each well was washed three times by the addition of TBS-T at 200 μL/well. An HRP-bound anti-mouse antibody was added at 70 μL/well to each well and reacted therewith for 1 hour. After removal of the antibody, each well was washed with 200 μL/well of TBS-T three times, and a chromogenic reagent ABTS Peroxidase Substrate System (1 component, KPL, Kirkegaard & Perry Laboratories, Inc.) was then added thereto at 70 μL/well and reacted at room temperature for […] to develop color. The reaction was terminated by the addition of 1% SDS at 70 μL/well, and the absorbance at 405 nm was measured using a plate reader.

[2] = target: T2, GPC3 peptide, amino acid position …; assay: ELISA on immobilised peptide
Protocol: as §1

[3] = target: T3, GPC3 peptide, amino acid position …; assay: ELISA on immobilised peptide
Protocol: as §1

[4] = target: T4, GPC3 peptide, amino acid position …; assay: ELISA on immobilised peptide
Protocol: as §1

[5] = target: T5, GPC3 peptide, amino acid position …; assay: ELISA on immobilised peptide
Protocol: as §1

[6] = target: T6, GPC3 peptide, amino acid position …; assay: ELISA on immobilised peptide
Protocol: as §1

[7] = target: T7, GPC3 peptide, amino acid position …; assay: ELISA on immobilised peptide
Protocol: as §1

[8] = target: T8, GPC3 peptide, amino acid position …; assay: ELISA on immobilised peptide
Protocol: as §1

[9] = target: T9, GPC3 peptide, amino acid position …; assay: ELISA on immobilised peptide
Protocol: as §1

[10] = target: T10, AW5, C-terminally His-tagged recombinant product of positions 1 to 357 of GPC3 (human, UniProt P51654 25-357); assay: Western blot of CHO cell pellets, reducing
T10 construct: Expressed in CHO cells; cell pellets used in reducing Western blot; Construct is stated from position 1; also called AW5 (1-357); not shown: C-terminal His tag
T10 sequence (P51654 25-357): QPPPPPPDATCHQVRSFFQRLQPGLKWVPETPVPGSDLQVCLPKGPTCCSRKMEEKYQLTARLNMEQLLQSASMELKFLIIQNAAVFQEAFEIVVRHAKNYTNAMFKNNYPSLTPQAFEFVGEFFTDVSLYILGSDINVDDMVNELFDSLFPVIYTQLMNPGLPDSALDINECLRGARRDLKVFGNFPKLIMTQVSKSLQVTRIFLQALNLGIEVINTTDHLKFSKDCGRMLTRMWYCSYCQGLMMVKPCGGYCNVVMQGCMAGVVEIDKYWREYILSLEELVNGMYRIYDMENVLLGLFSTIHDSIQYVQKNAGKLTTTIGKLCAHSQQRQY

Row | Binder | binding result [1] | binding result [2] | binding result [3] | binding result [4] | binding result [5] | binding result [6] | binding result [7] | binding result [8] | binding result [9] | binding result [10]
1 | B1 | no binding (tested: 2 µg/mL) | no binding (tested: 2 µg/mL) | no binding (tested: 2 µg/mL) | no binding (tested: 2 µg/mL) | no binding (tested: 2 µg/mL) | no binding (tested: 2 µg/mL) | no binding (tested: 2 µg/mL) | no binding (tested: 2 µg/mL) | no binding (tested: 2 µg/mL) | –
2 | B2 | no binding (tested: 2 µg/mL) | no binding (tested: 2 µg/mL) | no binding (tested: 2 µg/mL) | no binding (tested: 2 µg/mL) | no binding (tested: 2 µg/mL) | no binding (tested: 2 µg/mL) | no binding (tested: 2 µg/mL) | no binding (tested: 2 µg/mL) | no binding (tested: 2 µg/mL) | no binding
3 | B3 | no binding (tested: 2 µg/mL) | no binding (tested: 2 µg/mL) | no binding (tested: 2 µg/mL) | no binding (tested: 2 µg/mL) | no binding (tested: 2 µg/mL) | no binding (tested: 2 µg/mL) | no binding (tested: 2 µg/mL) | no binding (tested: 2 µg/mL) | no binding (tested: 2 µg/mL) | –
